This is an account of results in the NTF2 design screens of Basanta et al. (2020).

A short description of this data set: protease stability score; higher = more stable; yeast display proteolysis, trypsin and chymotrypsin.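 Also: relative to predicted unfolded state with 0 unfolded-like and 1 meaning tenfold more protease.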
The sequence “SELEEIAEEVARRFSHFIETGDEEKLWKYFDPHVKIDIDIDGRTKELHGMERFVFFIRYLGLDRVELRDHRIEIQGEKAILDGTTHINGRTRKTNFHIFVFNGRIKFMQVHII” came in with a protease stability score of 1.48. Next, “SELEEILKIARRFFEIVMRTGDPRDIERLLDPNAKLIIDGQEIHGREKMSNTFEEMVRRYDVVKSIEDKDWKIVNGRVDLDITLNGRVDGKDISTRVIIHVEKINGRWFMREVNIE”: 2.14; “SELEEITEKAIRMDLQHEETGDWKKYSDMIDPHARFIVNGVEFVGRHFLLKWFLDVAKRVDHSRMHVDHEEHVDGRIHVDFRFELIFDGREYRIRSHIVADKIDGQWYFRQIRFQ”: 1.29; “SELEEITRRVWERLVRDLRTGDEKSLQEMLDPNVRSDFNGVELIGRELATKLIAELRIHDVKVEDVKFQGDKMTLDTKIDGEVNGKRHEFKHTLIFVKVDGQWMIETEEFH”: 1.26.

For the sequence “SELEEKAREMLTLLHKFWRTGNEEFFTKLFDPDMKLTVGDKEYIGMEDVTEYFVKWTREARLTDQETTDIEYYDGRLRIHVEMDVKQGDKRRKLESIIILLKVDGRWFATKVEIR”, the protease stability score amounted to 0.928. Next, “SELEEKTEKWARLFWLLYKTGDWETLEKLLDPHVRSEINGKEEHGRENMIRMLVDLLRLLGIDHIELHHIEFVNGKVIIHLSLHAENHSSELIIEVNIINGKIESIRIEVR”: 1.09; “SELEELMHKFAKLFIHLWETGNEELLTKMADPNTRLIINGREVIGMERLLEVFHYIKTEIRLDTMRLEHIDWQGNKAHSHTRLHGEFNGRRHEDESEIHIRVIDGRVHTFEIRFK”: 1.2; “SELEELMKRLVKDWLHNWITGNEDRIWELADPDALVHFDGVISHGREEVIKLIRRFTEELRIHRIQIDHIKIQGDKIHIHLTEDGTIGDKRKEINVEIILFIINGKFKSSEIRIR”: 1.49. Regarding “SELEELSKEALERHNKDLRTGDWEELWRLLDPNVKLIVNGRHVHGREDATKFLLDWVRQVDHIRSIHIEDYKFQGNKLILHVRYQMDVDGKRDSREMTIYASKVDGRWIVESIEFR”, the protease stability score is 1.64. “SELEELSKHHLELLTHSHRTGDEKSFVELLDPHARIHQGDFHFHGRKLIDEFFRQARIHHIHVDDSELQGNWVFVHGRVEGNFNGVRSKITTHIIELKVNGRWLLHNVHIA” registered a protease stability score of 0.779. “SELEELTEEAVKHILHIWETGDEEMSHDLVDPHVRVHVNGQKYHGRENAVEHISKLKGAKWHLRRFEVIDGKIHVDGQFHFNGRHHEVRVVIRKINGRWLIHEIQID” had a protease stability score of 1.77. “SELEELVKRILKFILHSWDTGDEEFDKHMADPNVRVIYNGVDLHGMHTKDDLIKRLGWEQESRIRSIRAIGEKAHMDVELVWRFDGQQRDHDTRVHLDIVNGRSKNMEIRFK”: the protease stability score stood at 0.165. With “SELEELWKRLLEEFVRLLHTGNEERILDLMDPHARVHTTFENHEFHDHGREAFHIMWEEFGINHLEFHRVRLFNGQVDITGSVNVNGREMETRIHLYIINGRVHQTIFRFR”, the protease stability score is 0.996. Next, “SELEELWRKMVEFQERSNTTGDEKSFLEMLDPDMRIIIGDFEFHGRENAKDYLRRVDHIHHVEYRRVDLQGDKAHIEMHINGHWDGRTHRTDTHLHLRKFNGRWHVEDVQVD”: 1.41; “SELEEQERTHIHKLMNAIETGDEDLFRRLFDPNVRVDVDGVEFIGREHLLILLRHMRMHARHFKEEDFSVQGDKVHLYGHLDEEIEINGKVTRRHIHVTWVLVKVNGKWVIHSQYVL”: 1.41. The figure for “SELEEQVKYALELFIRTFETGDEDLSSQLLDPNTRLEINGREIHGRELVSKFWLKFATEMRLRRTHTRSIRNVDGKAINHTTIDVEIGDKRTTIDVELIAYKFDGRWVNEKIQFH” is 0.828. As to “SELEERAEKMTKEFERAFVTGNWEEQVKLLDPNVRIDINGVIFVGREQYERLVREIWMHVEDFRVTSLELQGEKARTHVESDVIIRVNGRDIRKKTEEEIVVSKINGVWSVERIHVR”, the protease stability score came out at 1.24. The figure for “SELEESLEKFLRALRHLTETGDEDTWKRLLDPTTRLEINGKEIHGREDVSRHWKELRFRSEDPKDYKIVDGVLRLDTRVDGVFNGQHREVDVEVIVFKVDGRWEIKRIRYH” is 1.56; for “SELEESVRWAAEVFVKYTLTGNEHLLSRYFDPNVRVHFDGVDLHGREELSKLFLHIRFRRIHLRSEKEFEGHAELDQEHDGHYNGVRHNRTLRLHMIKINGQWITEVFILH” it is 1.34; for “SELEETLKRSYELLSRILETGDEHRLKSLADPHTRMDFNGVEVHGMHLTVQWMKEFGADHEQYEVRIKRLDVQGDKLHSHGLLIIRIFINGRTIDLKIETHMHAEKIDGRWVIREIIWR” it is 1.36. The figure for “SELEEWLFHFVKRFIRAELTGDEEEMLHLLDPNARMIIGDKHIHGRENIMELVRHFWHEIRIDHIEIKHVDFQGDKVIIHGQSDGQINGQRTTVDVRIQLIIINGRLKLLEFDNR” is 1.71; for “SELEEWTERMAKQMLDDVETGDEDRLLKLADPHVRVEFIVDGKIEEVHGREELRKLMERLGIKHFEIKRVSIRVIDGRIHVHNDGHMIIDGKTIPVQLHIHAEKVNGRWRVTDLSIRVG” it is 1.51; for “SELEEYLTYLSKLFVHALITGNEDKYTEEFDPRTRFEMLINGRRIEYHGRESVREFLRHFLEEWRIHHIDTTEIEFIGDKARIHGEQEVHFNGRNITTKVRIDILFYNGKMRDIRIEIE” it is 2.15. Sequence “SELEHDARNAEHWFEETFRTGDEEDRERLLDPHVLVEFNGREYIGWHVFQKFFNDLGVDHMEVRIHDSKVFNGRVHLDGELTIRQGDKLIRSHVHLILTKVDGRWRMREIRIH” yielded a protease stability score of 1.73. Next, “SELEHEMVEFFRLLVHAWRTGNEELAHRLIDPNVRLDVNGRHFHGWEEFFRFYKEIRLKDADLDSFRIIDGRVELDGTMHMEQGDKSRSVESHVLLEKIDGRWIVRSVRFH”: 1.44; “SELEHLMEEAWRLLLEAIRTGDEKLTNKLLDPNVRIEVGEFHYHGRELMLTWFKYELKHLRFKDSRIDHFDVVDGVAKMRTTDTNLVNGRDVTLDVIYVILKVNGRWVFHSMEIR”: 0.861; “SELEHLTEEVAERVLRVLLTGNEHWLDRLLDPHVRLHVNGQDFHGRENVKRWMHELGVDHREIEIEDYRSINGVFIVWGHIRIHQGEKEIKFKSEHIFVVFNGKMQSMEIRIL”: 1.58. “SELEHMLREVLHLLYESLETGDEELLETLVDPRMRLYINGQLIHGMDLAVEIELRRSREMRFRDWKIHSIHVQGNKAFMDVRHVGQINGVHISLEHEILIHKINGRWTIEERITK” returned a protease stability score of 0.43.

For the sequence “SELEHQVRKFVEIYVEAMRTGDEDVLRELADPHVRVVIGDKELHGWEEVVHKLRELRLEEIRVDRVRVIGDYVYVDGHSVWTYGDKRIEQRDIFTIRKVNGRWVLHDVILR”, the protease stability score came to 1.99. Sequence “SELEHVEEKLLRDLVNAIKTGDEEFFNRLLDPDDRLHEKQGDKTIDFIGREEWKRFLSQIKNLKVEFRDVDLWNGRIHMRVVIIINGREHDLELEYVIVNGRFKQFHVRIR” gave a protease stability score of 2.2. On to “SELEHWAERLTRILIHSLYTGDEESLLKLADPRVRNDVNGVHVVGMEWFLKVWNKYRDELRIHHIEVRDIKIINGVAHSTVREDGEINGKKLDVETHVELDTVNGRLRIVHIRIV”, for which the protease stability score came to 1.58. In turn, “SELEKDQEDFVRIVEEMMNTGDEHVFKNLADPHVRNDVNGKDVHGRELVTKIWHFLLRHLGINHIELKHVEIYGNKVIIHMEERVGDKRVELVIVAEKVNGKWYLSEIRFEHK” registered a protease stability score of 1.28. The figure for “SELEKELREFIKKVVEALATGDEDLLRELFDPHVRVKIGEWHFIGMEEMLRLIREIRMEIEEVRITELQIQGDKIHMETRLHGRLHIGDKERQTHYSTRVNVRKIDGQWITKSWEVH” is 2.04; for “SELEKFHEESLKSVLESWITGDEHLNRDLVDPDAKLNVNGREHHGWELITILLSQMRVHDFKRRDIRFQGDKIFIDGEIDGEINGQRIRLRIDIIAVKVNGKWLIKEVRVH” it is 1.69. “SELEKFIRKYSDDWRELHRTGDFEIFQELADPHMIFHSIVGDKRTEIHGRESYIEWLREELEHWRIHHIQLRRSTAIGDFAVVDGELDGEFNGQRERRKVKVDLFVVNGQTKHIEFRIH” gave a protease stability score of 1.19. Consider “SELEKHIKDYFDYIFTLLLTGDWDTLWRMADPNVRFHAEGHEIHGRELWEEFIRKFKNIKVHLHRSSLIGDYLFLDGELEINGRRIRTEIELVIVNGRLTEVSHRLR”, for which the protease stability score came out at 0.807. “SELEKHLEDVASMWLKVIQTGDWDKLFELADPNVRFEQIYGDKKVELHGREEMIEWLRKFMEQMRTEHRIHSMEVQGDKVHLDTRVILDFNGVRIHLETRVIIIVVNGRLHSYSEHVK” displayed a protease stability score of 1.31. The figure for “SELEKLAEEMLELFIEIFLTGDWRTFLRLADPHTRLNVDGKNNHGREEVRRHLEEELRQMRWHDVKIHDFDVIGEKAHVRLRVDGIINGRRIDFEMELEITVVNGVIKDVRVRRR” is 1.48; for “SELEKLLLDIARKLIHSYLTGDWRTFQELADPNVKIRVVVGDKEERIHGRENIIEWLERERKQYDHIEVRIDDERTIGDKLHIDGTFIIRVDGKTRFSRVEIHLLIIDGKVTSLEFHEK” it is 1.07; for “SELEKLSHELARLLIENWETGDWKRFIDLIDPHAKLHIGDKDHIGREEITRFLKEVWHRFDHIEMRIHHIKVIGNYAHSDGEMIININGQERRHDVEIIVVVVNGVVHSVEIHIE” it is 1.9. With “SELEKYSKLMLDLILHSRLTGDEEHHEKLMDPNVRIEIGDKELHGRELAVKWMSHWRLEELRVRHIHNQGDKINVDVEEVETVDGVRIRFRSELIILKVDGQWLNHSIITR”, the protease stability score came to 1.16. Next, “SELEQELKHFVRLMKEIMRTGNWDLFERYADPNVRLEINGRDYIGRELASESLRHFVEEWGLDRVDVRVEHSSFQGDKAHSKINTDFNGQERTVHYDVLKVDGRWIVQRVRIE”: 2.06. “SELEQMWREAKETIEKINKTGDPRSLLENADPTVRTDYGEKDYHGREEFKKFLEWLGIKHIKDVRFRDFEVQGDKIIHDSEVDVEVGDKEFRIKSIVIALKVDGRWLITRLVFK” gave a protease stability score of 1.9.

For the sequence “SELERDAEMAFKIYKHNIETGNEEELDKLVDPNVRLEAENHSTHGREDWYNLMRHFGVKHTDVKDFRIQGDKIHLHGVLHFNGRTFKITLYVHKFDGRWHIKSVEVH”, the protease stability score was 0.364. The figure for “SELERHAKEIAKIFSEVESTGDEDRMWELVDPDVRLHVGDKEFHGMEWVITLIREHLRHIRLKHVEITHIRVIDGRVDVDTRIHGIINGRELVTKSRIIIDKINGRWLVSSLKYE” is 1.15; for “SELERLIMEMLHLLIELWLTGDEETLSKLIDPNTRLIVIQGDKHIIVHGRELVLHIMRRIREEIRFEDSRIRSMDAQGNKASINEEMHFRIGDKEVRFEREVEVWVIDGKLHSLVIRIK” it is 0.871. “SELERQIERANRELVDIIYTGDEHLVDRMLDPRTLLTVGDKHTIGREEMIEWFKHHIREMRIRHSDTKDPHFINGVIDSHLYLDMEFDGRRFISRTRLIVLKIDGRWHIERITII” had a protease stability score of 0.687.
